# Results as given in patent US20210214447A1 (SHANGHAI INSTITUTE OF MATERIA MEDICA CHINESE ACADEMY OF …, published 2021).
# T1: extracellular domain of human AXL protein (AXL-ECD) (human, UniProt P30530 31-449)
# T1 construct: expressed in HEK293T cells; coated on the ELISA plate; also called AXL-ECD protein; human AXL extracellular domain protein
# T1 sequence: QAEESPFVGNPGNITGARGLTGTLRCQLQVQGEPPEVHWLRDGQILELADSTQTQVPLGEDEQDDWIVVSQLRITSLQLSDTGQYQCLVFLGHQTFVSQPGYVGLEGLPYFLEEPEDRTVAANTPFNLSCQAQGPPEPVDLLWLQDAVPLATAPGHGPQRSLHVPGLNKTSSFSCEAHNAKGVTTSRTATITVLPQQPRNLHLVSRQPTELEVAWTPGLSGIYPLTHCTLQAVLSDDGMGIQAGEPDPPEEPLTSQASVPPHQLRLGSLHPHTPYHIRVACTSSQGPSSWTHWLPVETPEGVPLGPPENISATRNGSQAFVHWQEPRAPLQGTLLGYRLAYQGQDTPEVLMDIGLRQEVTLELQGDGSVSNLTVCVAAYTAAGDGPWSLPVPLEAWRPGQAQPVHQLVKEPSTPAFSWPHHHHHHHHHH
# T2: human AXL on the surface of tumor cells (human, UniProt P30530 26-894)
# T2 construct: whole, on cells; endogenous protein of human tumor cell lines; the cell line is named under assay or readout; also called AXL on the cell surface
# T2 sequence (looked up): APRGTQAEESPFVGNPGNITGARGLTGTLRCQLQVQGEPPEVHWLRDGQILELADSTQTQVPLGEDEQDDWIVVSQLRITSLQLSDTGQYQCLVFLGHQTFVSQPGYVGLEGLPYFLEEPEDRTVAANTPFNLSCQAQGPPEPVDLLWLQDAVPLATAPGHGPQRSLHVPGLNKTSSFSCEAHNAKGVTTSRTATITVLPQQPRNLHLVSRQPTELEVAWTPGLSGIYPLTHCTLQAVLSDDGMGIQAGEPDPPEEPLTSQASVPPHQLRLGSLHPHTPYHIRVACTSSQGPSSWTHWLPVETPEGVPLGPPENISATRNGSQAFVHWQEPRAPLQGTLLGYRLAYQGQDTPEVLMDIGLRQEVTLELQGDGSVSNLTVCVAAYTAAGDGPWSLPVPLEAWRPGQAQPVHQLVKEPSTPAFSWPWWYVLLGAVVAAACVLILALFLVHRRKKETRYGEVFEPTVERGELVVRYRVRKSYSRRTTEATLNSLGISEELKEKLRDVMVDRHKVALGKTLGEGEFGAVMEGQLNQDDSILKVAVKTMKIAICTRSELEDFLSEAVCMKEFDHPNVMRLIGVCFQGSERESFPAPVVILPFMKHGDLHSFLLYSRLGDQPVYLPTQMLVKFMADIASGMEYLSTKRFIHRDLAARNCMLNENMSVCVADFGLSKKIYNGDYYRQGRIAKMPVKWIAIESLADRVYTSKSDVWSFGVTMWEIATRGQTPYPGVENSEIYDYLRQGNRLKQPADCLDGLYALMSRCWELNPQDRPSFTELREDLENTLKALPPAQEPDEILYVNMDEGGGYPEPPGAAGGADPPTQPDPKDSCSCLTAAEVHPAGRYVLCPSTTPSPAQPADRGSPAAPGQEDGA
# Key:
# [1] = molecular target: T1, extracellular domain of human AXL …; assay: ELISA, plate-coated AXL-ECD
# Description: The extracellular domain of AXL protein (AXL-ECD) was diluted to […] with the coating solution, and coated onto ELISA plate with 100 μL/well at 4° C. overnight. The excess antigen was washed off. The plate was blocked with 1% BSA at room temperature for 2 h, then each monoclonal antibody in a 3-fold dilution was added at 100 µL/well. The plate was incubated at room temperature for 1 h; the unbound antibody was washed off, and appropriate concentration of anti-mouse secondary antibody labeled with horseradish peroxidase was added at 100 µL/well. The plate was incubated at room temperature for 0.5 h. The unbound secondary antibody was washed off. TMB Substrate was added and reacted for about 15 minutes. 1N HCL was added at 50 µL/well to stop the color reaction. Then the absorbance was measured at 450 nm and the obtained data was analyzed.
# 24 humanized antibodies in Table-6 were diluted by gradient, and their affinity to AXL-ECD protein was determined by ELISA. The experimental method was referred to Example 4.
# [2] = molecular target: T2, human AXL on the surface of tumor cells; assay: FACS on MDA-MB-231 cells
# Description: Then the obtained solutions were incubated at 4° C. for 1 h, the cells were washed twice with PBS to remove unbound primary antibody, and then the target cells were incubated with 200 μL PE-labeled secondary antibody (2 μg/mL) at 4° C. for 30 min. The cells were washed twice with PBS to remove unbound secondary antibody. Finally, the cells were resuspended in 200 μL PBS, and the binding affinity of the test antibody to AXL on the cell surface was determined by a flow cytometer (FACSCalibur)
# 24 humanized antibodies in Table-6 were diluted by gradient, and their affinities to AXL, on the surface of MDA-MB-231 cells were determined by flow cytometer. The experimental method was referred to Example 8.
EC50 [1] [nM],TOP (OD450) [1] [OD450],EC50 [2] [nM],Highest MFI value (FACSCalibur) [2] [MFI],Binder
0.048,3.6,0.108,277,"Hu002-3 (antibody, V domains shown, humanized from mAb002c; also called Hu002c-3) VH: QVQLVQSGAEVKKPGASVKVSCKASGYPFTDFYINWVKQAPGQGLEWIGWIYPGSGNTKYNEKFKGRVTLTVDTSISTAYMELSRLRSDDTAVYYCARSTGFFDYWGQGTLVTVSS VL: EIVLTQSPATLSLSPGERATLSCSASSSIGYMYWYQQKPGQAPRLLIYLTSNLASGIPARFSGSGSGTDFTLTISSLEPEDFAVYYCQQWSSNPPTFGQGTKLEIK"
0.045,3.71,0.107,269,"Hu002-17 (antibody, V domains shown, humanized from mAb002c; also called Hu002c-17) VH: QVQLVQSGAEVKKPGASVKVSCKASGYPFTDFYINWVRQAPGQGLEWMGWIYPGSGNTKYNEKFKGRVTLTVDTSISTAYMELSRLRSDDTAVYYCARSTGFFDYWGQGTLVTVSS VL: EIVLTQSPDFQSVTPKEKVTITCSASSSIGYMYWYQQKPDQSPKLLIYLTSNLASGVPSRFSGSGSGTDYTLTINSLEAEDAATYYCQQWSSNPPTFGQGTKLEIK"
0.045,3.73,0.116,261,"Hu002-12 (antibody, V domains shown, humanized from mAb002c; also called Hu002c-12) VH: QVQLVQSGAEVKKPGASVKVSCKASGYPFTDFYINWVKQAPGQGLEWIGWIYPGSGNTKYNEKFKGRVTLTVDTSISTAYMELSRLRSDDTAVYYCARSTGFFDYWGQGTLVTVSS VL: QIVLTQSPATLSLSPGERATLSCSASSSIGYMYWYQQKPGQSPRSLIYLTSNLASGIPARFSGSGSGTDYTLTISSLEPEDFAVYYCQQWSSNPPTFGQGTKLEIK"
0.043,3.74,0.123,271,"Hu002-11 (antibody, V domains shown, humanized from mAb002c; also called Hu002c-11) VH: QVQLVQSGAEVKKPGASVKVSCKASGYPFTDFYINWVRQAPGQGLEWMGWIYPGSGNTKYNEKFKGRVTLTVDTSISTAYMELSRLRSDDTAVYYCARSTGFFDYWGQGTLVTVSS VL: QIVLTQSPATLSLSPGERATLSCSASSSIGYMYWYQQKPGQSPRSLIYLTSNLASGIPARFSGSGSGTDYTLTISSLEPEDFAVYYCQQWSSNPPTFGQGTKLEIK"
0.052,3.63,0.101,271,"Hu002-6 (antibody, V domains shown, humanized from mAb002c; also called Hu002c-6) VH: QVQLVQSGAEVKKPGASVKVSCKASGYPFTDFYINWVKQAPGQGLEWIGWIYPGSGNTKYNEKFKGRVTLTVDTSISTAYMELSRLRSDDTAVYYCARSTGFFDYWGQGTLVTVSS VL: EIVLTQSPATLSLSPGERATLSCSASSSIGYMYWYQQKPGQAPRLLIYLTSNLASGIPARFSGSGSGTDYTLTISSLEPEDFAVYYCQQWSSNPPTFGQGTKLEIK"
0.049,3.59,0.138,270,"Hu002-8 (antibody, V domains shown, humanized from mAb002c; also called Hu002c-8) VH: QVQLVQSGAEVKKPGASVKVSCKASGYPFTDFYINWVRQAPGQGLEWMGWIYPGSGNTKYNEKFKGRVTLTVDTSISTAYMELSRLRSDDTAVYYCARSTGFFDYWGQGTLVTVSS VL: EIVLTQSPATLSLSPGERATLSCSASSSIGYMYWYQQKPGQSPRSLIYLTSNLASGIPARFSGSGSGTDYTLTISSLEPEDFAVYYCQQWSSNPPTFGQGTKLEIK"
0.047,3.73,0.073,262,"Hu002-13 (antibody, V domains shown, humanized from mAb002c; also called Hu002c-13) VH: QVQLVQSGAEVKKPGASVKVSCKASGYPFTDFYINWVRQAPGQGLEWMGWIYPGSGNTKYNEKFKGRVTMTRDTSISTAYMELSRLRSDDTAVYYCARSTGFFDYWGQGTLVTVSS VL: EIVLTQSPDFQSVTPKEKVTITCSASSSIGYMYWYQQKPDQSPKLLIKLTSNLASGVPSRFSGSGSGTDFTLTINSLEAEDAATYYCQQWSSNPPTFGQGTKLEIK"
0.058,3.59,0.129,275,"Hu002-7 (antibody, V domains shown, humanized from mAb002c; also called Hu002c-7) VH: QVQLVQSGAEVKKPGASVKVSCKASGYPFTDFYINWVRQAPGQGLEWMGWIYPGSGNTKYNEKFKGRVTMTRDTSISTAYMELSRLRSDDTAVYYCARSTGFFDYWGQGTLVTVSS VL: EIVLTQSPATLSLSPGERATLSCSASSSIGYMYWYQQKPGQSPRSLIYLTSNLASGIPARFSGSGSGTDYTLTISSLEPEDFAVYYCQQWSSNPPTFGQGTKLEIK"
0.067,3.62,0.121,268,"Hu002-9 (antibody, V domains shown, humanized from mAb002c; also called Hu002c-9) VH: QVQLVQSGAEVKKPGASVKVSCKASGYPFTDFYINWVKQAPGQGLEWIGWIYPGSGNTKYNEKFKGRVTLTVDTSISTAYMELSRLRSDDTAVYYCARSTGFFDYWGQGTLVTVSS VL: EIVLTQSPATLSLSPGERATLSCSASSSIGYMYWYQQKPGQSPRSLIYLTSNLASGIPARFSGSGSGTDYTLTISSLEPEDFAVYYCQQWSSNPPTFGQGTKLEIK"
0.052,3.72,0.094,264,"Hu002-14 (antibody, V domains shown, humanized from mAb002c; also called Hu002c-14) VH: QVQLVQSGAEVKKPGASVKVSCKASGYPFTDFYINWVRQAPGQGLEWMGWIYPGSGNTKYNEKFKGRVTLTVDTSISTAYMELSRLRSDDTAVYYCARSTGFFDYWGQGTLVTVSS VL: EIVLTQSPDFQSVTPKEKVTITCSASSSIGYMYWYQQKPDQSPKLLIKLTSNLASGVPSRFSGSGSGTDFTLTINSLEAEDAATYYCQQWSSNPPTFGQGTKLEIK"
0.05,3.72,0.099,268,"Hu002-15 (antibody, V domains shown, humanized from mAb002c; also called Hu002c-15) VH: QVQLVQSGAEVKKPGASVKVSCKASGYPFTDFYINWVKQAPGQGLEWIGWIYPGSGNTKYNEKFKGRVTLTVDTSISTAYMELSRLRSDDTAVYYCARSTGFFDYWGQGTLVTVSS VL: EIVLTQSPDFQSVTPKEKVTITCSASSSIGYMYWYQQKPDQSPKLLIKLTSNLASGVPSRFSGSGSGTDFTLTINSLEAEDAATYYCQQWSSNPPTFGQGTKLEIK"
0.068,3.58,0.118,273,"Hu002-10 (antibody, V domains shown, humanized from mAb002c; also called Hu002c-10) VH: QVQLVQSGAEVKKPGASVKVSCKASGYPFTDFYINWVRQAPGQGLEWMGWIYPGSGNTKYNEKFKGRVTMTRDTSISTAYMELSRLRSDDTAVYYCARSTGFFDYWGQGTLVTVSS VL: QIVLTQSPATLSLSPGERATLSCSASSSIGYMYWYQQKPGQSPRSLIYLTSNLASGIPARFSGSGSGTDYTLTISSLEPEDFAVYYCQQWSSNPPTFGQGTKLEIK"
